Experimental data published in the nanobody polyreactivity screen of Harvey et al. (2022).

Test: yeast display, Sf9 membrane polyspecificity reagent, FACS + sequencing; frameworks hold sequencing errors
Procedure, shortened: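 Synthetic nanobody libraries on Saccharomyces cerevisiae BJ5465 were galactose-induced for 36–48 hours, stained 1 hour at 4 °C with 10% biotinylated, detergent-solubilized Sf9 membrane reagent and enriched on streptavidin microbeads. FACS then separated cells into low and high (top ~1%) gates by anti-HA (expression) and streptavidin (reagent binding) fluorescence. Genes were colony-PCR amplified, MiSeq 2 × 250 sequenced and CDR-length filtered. A clone's polyreactivity label is that of its gate of origin.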

Sequence	polyreactivity (PSR sort gate)
QVQLVESGGGLVQAGGSLRLSCAASGFIFWLYAMGWYRQAPGKEREVVAGITRGGGSTYYADSVKGRFTISRDNAKNTVYLQMNSLKPEDTAVYYCAADAWSSYLDRPFDYWGQGTQVTVSS	high polyreactivity
QVQLVESGGGLVQAGGSLRLSCAASGFIFWLYPMGWYRQAPGKERELVAAISSSGGNTYYADSVKGRFTISRDNAKNTVDLQMISLKPEDTAVYYCAASYSYGRTYSGYYWGQGTQVTVSS	low polyreactivity
QVQLVESGGGLVQAGGSLRLSCAASGFIFWRNAMGWYRQAPGKEREFVARISSSGGSTYYADSVKGRFTISRDNAKNTVYLQMNSLKPEDTAVYYCNADVWYRYGYFRYDYWGQGTQVTVSS	high polyreactivity
QVQLVESGGGLVQAGGSLRLSCAASGFIFWSYAMGWYRQAPGKERELVAAITRRGGSTYYADSVKGRFTISRDNAKNTVYLQMNSLKPEDTAVYYCNARRTYNGPVYPYYSGVNYWGQGTQVTVSS	high polyreactivity
QVQLVESGGGLVQAGGSLRLSCAASGFIFWSYAMVWYRQAPGKERELVAAISHGGSTNYADSVKGRFTISRDNSKNTVYLQMNSLKPEDTAVYYCAKDELYIPGVWPYYEYDYWGQGTQVTVSS	low polyreactivity
QVQLVESGGGLVQAGGSLRLSCAASGFIFWTYAMGWYRQAPGKERELVAAITGGGGTTYYADSVKGRFTISRDTAKNTVYLQMNSLKPEDTAVYYCAAKQYRSRSGGYWGQGTQVTVSS	high polyreactivity
QVQLVESGGGLVQAGGSLRLSCAASGFIFWVYAMGWYIQAPGKERELVAAITSGGGSTYYADSVKGRFTISRDNAKNTVYIQMNSLKPDDTAVYYCATRIRTVAYNYWGQGTQVTVSS	high polyreactivity
QVQLVESGGGLVQAGGSLRLSCAASGFIFWWYNMGWYRQAPGKERELVAAISGSGGSTYYADSVKGRFTISRDNAKNTVYLQMNSLKPEHTAVYYCAALFGTGQFYYRYDYWGQGTQVTVSS	high polyreactivity
QVQLVESGGGLVQAGGSLRLSCAASGFIFWYNAKGWYRQAPGKERELVAAISSGGSTHYADSVKGRFTISRDNAKNTVYLLMNSLKPEDTAVYYCNTDGYHSNRLDDYDYWRQGTQVTVSS	low polyreactivity
QVQLVESGGGLVQAGGSLRLSCAASGFIFWYNAMGWYRQAPGKERELVAVISTSGTITYYADSVKGRFTISRDNAKNTVYLQMNSLKPEDTAVYYCAARYYQRANGFGYWGQGTQVTVSS	low polyreactivity
QVQLVESGGGLVQAGGSLRLSCAASGFIFWYYALGWYRQAPGKERELVAAISARDGSTYYADSVKGRFTISRDNAKNTVYLQMNSLKPEDTAVYYCNAVQRYPKFRMDYWGQGTQVTVSS	low polyreactivity
QVQLVESGGGLVQAGGSLRLSCAASGFIFWYYGMGWYRQAPGKERELVAAINWSGTSTNYADSVKGRFTISRDNAKNTVYLQMNSLKPEDTAVYYCAAEYWYTYSWGQGTQVTVLS	low polyreactivity
QVQLVESGGGLVQAGGSLRLSCAASGFIFYAMGWYRQAPGKERELVAAITLSDGTTYYADSVKGRFTISRDNAKNTVYLQMNSLKPEDTAVYYCAAEYSVPYRGWDGYEYWGQGTQVTVSS	low polyreactivity
QVQLVESGGGLVQAGGSLRLSCAASGFIFYAYAMGWYRQAPGKERELVPAISRRGGSTYYADSVKGRFTISRDNAKNTVYLQMNSLKPEDTAVYYCARDWTLGRSGPKYGYWGQGTQVTVSS	high polyreactivity
QVQLVESGGGLVQAGGSLRLSCAASGFIFYDYTMGWYRQAPGKERELVAAISSRGGSTYYADSVKGRFTISRDNAKNTVYLQMNSLKPEDTAVYYCAAYWSQQTYEYWGQGTQVTVSS	high polyreactivity
QVQLVESGGGLVQAGGSLRLSCAASGFIFYEYAMGWYRQAPGKERELVAAISSGGDTNYADSVKGRFTISRDNANNTVYLQMNSLKPEDTAVYYCAKDYSDPGWAEYDYWGQGTQVTVSS	low polyreactivity
